From patent publication US8465945B2, “Method for production and use of mite group 1 proteins” (Merck Patent GmbH, priority 1999, dated 2013)

Assays:
[1] = tested on: anti-Der f 1 MAb 6A8 (capture) and anti-Der f 1 MAb 4C1 (detection); assay: Monoclonal Capture ELISA; assay type: binding
Method: Assays were carried out as follows. A microtiter plate as described in Example 5 was coated overnight at 4° C. with 100 ng/well of anti-Der f 1 protein monoclonal antibody 6A8, denoted herein as anti-Der f 1 MAb 6A8, provided by Dr. Martin Chapman. The plate was washed in the manner described above. The following proteins were then added to wells, having been diluted in Assay Buffer in a 2-fold dilution series, from 0.75 to 50 ng/well: Heska native Derf1, P. pastoris-expressed PDerf1303b, and E. coli-expressed PDerf1303c. After incubation for 1 hour at room temperature, plates were washed as described in Example 5. Then 100 μl per well of a 1:1000 dilution in Assay Buffer of biotinylated anti-Der f 1 monoclonal antibody 4C1, also denoted anti-Der f 1 MAb 4C1, provided by Dr. Martin Chapman, was added for 1 hour at room temperature. Plates were washed, streptavidin-HRP conjugate was added, and plates were developed as described in Example 5.

[2] = tested on: IgE from mite-allergic dog sera; assay: ELISA, binding of IgE from dog sera to coated Der f 1 proteins or mite extracts, detected with FcεR1α-biotin
Method: Native or recombinant Der f 1 proteins in 100 μl CBC buffer (50 mM sodium carbonate, pH 9.6) were coated onto wells (100 ng per well) of Immulon II microtiter plates (available from Dynex Technologies, Chantilly, Va.) by incubation at 4° C., covered, overnight. Excess fluid was removed and wells were blocked with 200 μl Assay Buffer (4% fetal calf serum (available from Summit Laboratories, Fort Collins, Colo.) in phosphate buffered saline (PBS, recipe in Sambrook, ibid.), plus 0.05% Tween-20 (available from Sigma, St. Louis, Mo.)) for one hour at room temperature. Plates were then washed for 4 cycles on an automatic plate washer (Ultrawash, available from Dynatech Laboratories) using PBS with 0.05% Tween-20. […] Control wells were treated identically except that no serum was added. Plates were then washed as described above. Biotinylated human IgE receptor alpha chain (FcεR1α-biotin) (100 μl of 1.3 ng/ml) prepared as described in U.S. Pat. No. 5,945,294, ibid., was added and incubated for one hour at room temperature. After this incubation, plates were washed as described above. Streptavidin-horseradish peroxidase conjugate (0.5 mg/ml, available from KPL Labs, Gaithersburg, Md.) was added at a 1:5000 dilution in Assay Buffer for one hour at room temperature, after which plates were washed as described above. TMB Peroxidase substrate system, 2 part (available from KPL Labs, #0-76-00), added at 100 μl per well, was used according to the manufacturer's directions. The color reaction was allowed to proceed until good color development was reached (about 10-15 min); then the reaction was stopped with 100 μl per well of 1 M phosphoric acid. Bound IgE was determined by measuring absorbance (Optical Density, or OD) at 450 nm (nanometers) using an ELISA plate reader (such as Spectramax”, Molecular Devices, Sunnyvale, Calif.). Background OD readings in the control wells were subtracted from all numbers. Results are reported in Tables 1, 2 and 3 as OD multiplied by 1000. OD numbers greater than 100 are considered to be positive for a reaction with IgE. P. pastoris-expressed proteins are denoted in the Tables as Pichia expressed proteins.

[3] = tested on: IgE from mite-allergic or normal human sera; assay: ELISA, binding of IgE from human sera to coated Der f 1 proteins or mite extracts, detected with FcεR1α-biotin

B1: PDerf1303c: Recombinant pro-form of Der f 1 (SEQ ID NO:35) expressed in E. coli from nDerf1909c, refolded from inclusion bodies (protein, listed as Dermatophagoides farinae)
chain: RPASIKTFEEFKKAFNKNYATVEEEEVARKNFLESLKYVEANKGAINHLSDLSLDEFKNRYLMSAEAFEQLKTQFDLNAETSACRINSVNVPSELDLRSLRTVTPIRMQGGCGSCWAFSGVAATESAYLAYRNTSLDLSEQELVDCASQHGCHGDTIPRGIEYIQQNGVVEERSYPYVAREQRCRRPNSQHYGISNYCQIYPPDVKQIREALTQTHTAIAVIIGIKDLRAFQHYDGRTIIQHDNGYQPNYHAVNIVGYGSTQGVDYWIVRNSWDTTWGDSGYGYFQAGNNLMMIEQYPYVVIM
[1]; 0.75 ng protein per well
  OD, protein captured by MAb 6A8 and detected by MAb 4C1: 136 OD
[1]; 1.5 ng protein per well
  OD, protein captured by MAb 6A8 and detected by MAb 4C1: 268 OD
[1]; 2.5 ng protein per well
  OD, protein captured by MAb 6A8 and detected by MAb 4C1: 1372 OD
[1]; 3.1 ng protein per well
  OD, protein captured by MAb 6A8 and detected by MAb 4C1: 503 OD
[1]; 6.25 ng protein per well
  OD, protein captured by MAb 6A8 and detected by MAb 4C1: 890 OD
[1]; 25 ng protein per well
  OD, protein captured by MAb 6A8 and detected by MAb 4C1: 1770 OD
[1]; 50 ng protein per well
  OD, protein captured by MAb 6A8 and detected by MAb 4C1: 1983 OD
[2]; Assay Number 1, serum dog pool
  OD, bound IgE: 615 OD multiplied by 1000
[2]; Assay Number 1, serum dog-1
  OD, bound IgE: 0 OD multiplied by 1000
[2]; Assay Number 1, serum dog-2
  OD, bound IgE: 258 OD multiplied by 1000
[2]; Assay Number 1, serum dog-3
  OD, bound IgE: 45 OD multiplied by 1000
[2]; Assay Number 2, dog sera pool A 146
  OD, bound IgE: 489 OD multiplied by 1000
[2]; Assay Number 2, dog sera pool KS338
  OD, bound IgE: 68 OD multiplied by 1000
[2]; Table 1
  dog serum samples bound, of those that bound to native Der f 1 proteins: 1 of 2
[3]; Assay Number 1, serum human 1916
  OD, bound IgE: 18 OD multiplied by 1000
[3]; Assay Number 1, serum human3848
  OD, bound IgE: 2291 OD multiplied by 1000
[3]; Assay Number 1, serum human 3958
  OD, bound IgE: 147 OD multiplied by 1000
[3]; Assay Number 1, serum human 3960
  OD, bound IgE: 1442 OD multiplied by 1000
[3]; Assay Number 1, serum human 3961
  OD, bound IgE: 67 OD multiplied by 1000
[3]; Assay Number 1, serum human 3987
  OD, bound IgE: 1416 OD multiplied by 1000
[3]; Assay Number 1, serum human 4289
  OD, bound IgE: 29 OD multiplied by 1000
[3]; Assay Number 1, serum human 4467
  OD, bound IgE: 236 OD multiplied by 1000
[3]; Assay Number 1, serum human 5207
  OD, bound IgE: 1902 OD multiplied by 1000
[3]; Assay Number 1, serum human pool
  OD, bound IgE: 883 OD multiplied by 1000
[3]; Assay Number 2, serum Heska human B
  OD, bound IgE: 0 OD multiplied by 1000
[3]; Assay Number 2, serum Heska human C
  OD, bound IgE: 4 OD multiplied by 1000
[3]; Assay Number 2, serum Heska human D
  OD, bound IgE: 0 OD multiplied by 1000
[3]; Assay Number 2, serum Heska human E
  OD, bound IgE: 10 OD multiplied by 1000
[3]; Assay Number 2, serum Heska human F
  OD, bound IgE: 0 OD multiplied by 1000
[3]; Assay Number 2, serum Heska human G
  OD, bound IgE: 0 OD multiplied by 1000
[3]; Assay Number 2, serum Heska human H
  OD, bound IgE: 0 OD multiplied by 1000
[3]; Assay Number 2, serum Heska human I
  OD, bound IgE: 1 OD multiplied by 1000
[3]; Assay Number 2, serum Heska human J
  OD, bound IgE: 0 OD multiplied by 1000
[3]; Assay Number 2, serum Heska human K
  OD, bound IgE: 0 OD multiplied by 1000
[3]; Assay Number 2, serum Heska human L
  OD, bound IgE: 0 OD multiplied by 1000
[3]; Assay Number 2, serum Heska human M
  OD, bound IgE: 0 OD multiplied by 1000
[3]; Assay Number 2, serum Heska human N
  OD, bound IgE: 24 OD multiplied by 1000
[3]; Assay Number 2, serum Heska human O
  OD, bound IgE: 2 OD multiplied by 1000
[3]; Assay Number 2, serum Heska human P
  OD, bound IgE: 0 OD multiplied by 1000
[3]; Assay Number 2, serum Heska human Q
  OD, bound IgE: 0 OD multiplied by 1000
[3]; Assay Number 2, serum Heska human R
  OD, bound IgE: 0 OD multiplied by 1000
[3]; Assay Number 2, serum human 1916
  OD, bound IgE: 21 OD multiplied by 1000
[3]; Assay Number 2, serum human 3848
  OD, bound IgE: 2378 OD multiplied by 1000
[3]; Assay Number 2, serum human 3958
  OD, bound IgE: 247 OD multiplied by 1000
[3]; Assay Number 2, serum human 3960
  OD, bound IgE: 944 OD multiplied by 1000
[3]; Assay Number 2, serum human 3961
  OD, bound IgE: 46 OD multiplied by 1000
[3]; Assay Number 2, serum human 3987
  OD, bound IgE: 1477 OD multiplied by 1000
[3]; Assay Number 2, serum human 4289
  OD, bound IgE: 47 OD multiplied by 1000
[3]; Assay Number 2, serum human 4467
  OD, bound IgE: 277 OD multiplied by 1000
[3]; Assay Number 2, serum human 5207
  OD, bound IgE: 2122 OD multiplied by 1000
[3]; Assay Number 2, serum human pool
  OD, bound IgE: 1161 OD multiplied by 1000
[3]; Table 1, 9 human samples (8 sera and pool), OD numbers greater than 100 positive
  reactivity: share of human serum samples reactive to native Der f 1 proteins that are also reactive to the recombinant protein: 78%
[3]; Table 2, 10 human serum samples
  reactivity: share of human serum samples reactive to native Der f 1 proteins that are also reactive to the recombinant protein: 70%
